From publication PMC6082870, “Molecular architecture of the multifunctional collagen lysyl hydroxylase and glycosyltransferase LH3” (Nature Communications, 2018)

Columns and labels:
[1] = target: the molecule itself; test: not stated; oligomeric assembly of LH3 N223S, Supplementary Fig. 11B; method not given
[2] = target: the molecule itself; test: SEC-SAXS; 50 uL LH3 at 4 mg/mL on Superdex 200 PC 3.2/300 Increase, 25 mM HEPES/NaOH, 200 mM NaCl, pH 8.0, online SAXS at ESRF BM29
[3] = target: the molecule itself; test: SEC; analytical size exclusion, Superdex 200 5/150 GL, 25 mM HEPES/NaOH, 200 mM NaCl, pH 8.0

B1: LH3 N223S pathogenic variant (enzyme, human, UniProt O60568 25-738, looked up)
chain: SDRPRGRDPVNPEKLLVITVATAETEGYLRFLRSAEFFNYTVRTLGLGEEWRGGDVARTVGGGQKVRWLKKEMEKYADREDMIIMFVDSYDVILAGSPTELLKKFVQSGSRLLFSAESFCWPEWGLAEQYPEVGTGKRFLNSGGFIGFATTIHQIVRQWKYKDDDDDQLFYTRLYLDPGLREKLSLNLDHKSRIFQNLSGALDEVVLKFDRNRVRIRNVAYDTLPIVVHGNGPTKLQLNYLGNYVPNGWTPEGGCGFCNQDRRTLPGGQPPPRVFLAVFVEQPTPFLPRFLQRLLLLDYPPDRVTLFLHNNEVFHEPHIADSWPQLQDHFSAVKLVGPEEALSPGEARDMAMDLCRQDPECEFYFSLDADAVLTNLQTLRILIEENRKVIAPMLSRHGKLWSNFWGALSPDEYYARSEDYVELVQRKRVGVWNVPYISQAYVIRGDTLRMELPQRDVFSGSDTDPDMAFCKSFRDKGIFLHLSNQHEFGRLLATSRYDTEHLHPDLWQIFDNPVDWKEQYIHENYSRALEGEGIVEQPCPDVYWFPLLSEQMCDELVAEMEHYGQWSGGRHEDSRLAGGYENVPTVDIHMKQVGYEDQWLQLLRTYVGPMTESLFPGYHTKARAVMNFVVRYRPDEQPSLRPHHDSSTFTLNVALNHKGLDYEGGGCRFLRYDCVISSPRKGWALLHPGRLTHYHEGLPTTWGTRYIMVSFVDP
notes: human LH3 (PLOD3), GenBank BC011674.2, devoid of the N-terminal signal peptide, with the pathogenic mutation N223S; The mutation was reported to add an N-linked glycosylation on Asn221; not shown: 6xHis, N-terminal, cleaved
stoichiometry N [1]: 2

B2: human lysyl hydroxylase 3 (LH3/PLOD3), wild type (enzyme, UniProt O60568 25-738, looked up)
chain: SDRPRGRDPVNPEKLLVITVATAETEGYLRFLRSAEFFNYTVRTLGLGEEWRGGDVARTVGGGQKVRWLKKEMEKYADREDMIIMFVDSYDVILAGSPTELLKKFVQSGSRLLFSAESFCWPEWGLAEQYPEVGTGKRFLNSGGFIGFATTIHQIVRQWKYKDDDDDQLFYTRLYLDPGLREKLSLNLDHKSRIFQNLNGALDEVVLKFDRNRVRIRNVAYDTLPIVVHGNGPTKLQLNYLGNYVPNGWTPEGGCGFCNQDRRTLPGGQPPPRVFLAVFVEQPTPFLPRFLQRLLLLDYPPDRVTLFLHNNEVFHEPHIADSWPQLQDHFSAVKLVGPEEALSPGEARDMAMDLCRQDPECEFYFSLDADAVLTNLQTLRILIEENRKVIAPMLSRHGKLWSNFWGALSPDEYYARSEDYVELVQRKRVGVWNVPYISQAYVIRGDTLRMELPQRDVFSGSDTDPDMAFCKSFRDKGIFLHLSNQHEFGRLLATSRYDTEHLHPDLWQIFDNPVDWKEQYIHENYSRALEGEGIVEQPCPDVYWFPLLSEQMCDELVAEMEHYGQWSGGRHEDSRLAGGYENVPTVDIHMKQVGYEDQWLQLLRTYVGPMTESLFPGYHTKARAVMNFVVRYRPDEQPSLRPHHDSSTFTLNVALNHKGLDYEGGGCRFLRYDCVISSPRKGWALLHPGRLTHYHEGLPTTWGTRYIMVSFVDP
modifications: N-linked glycosylations at Asn63 and Asn548
notes: a vector signal peptide, 6xHis tag and TEV site precede the BamHI site, so a few vector residues may remain after TEV cleavage; also called wild-type LH3; full-length human LH3; not shown: 6xHis, N-terminal, cleaved
stoichiometry N [2]: 2

B3: LH3 W148N-L150T glycosylated control mutant (enzyme, human, UniProt O60568 25-738, looked up)
chain: SDRPRGRDPVNPEKLLVITVATAETEGYLRFLRSAEFFNYTVRTLGLGEEWRGGDVARTVGGGQKVRWLKKEMEKYADREDMIIMFVDSYDVILAGSPTELLKKFVQSGSRLLFSAESFCWPENGTAEQYPEVGTGKRFLNSGGFIGFATTIHQIVRQWKYKDDDDDQLFYTRLYLDPGLREKLSLNLDHKSRIFQNLNGALDEVVLKFDRNRVRIRNVAYDTLPIVVHGNGPTKLQLNYLGNYVPNGWTPEGGCGFCNQDRRTLPGGQPPPRVFLAVFVEQPTPFLPRFLQRLLLLDYPPDRVTLFLHNNEVFHEPHIADSWPQLQDHFSAVKLVGPEEALSPGEARDMAMDLCRQDPECEFYFSLDADAVLTNLQTLRILIEENRKVIAPMLSRHGKLWSNFWGALSPDEYYARSEDYVELVQRKRVGVWNVPYISQAYVIRGDTLRMELPQRDVFSGSDTDPDMAFCKSFRDKGIFLHLSNQHEFGRLLATSRYDTEHLHPDLWQIFDNPVDWKEQYIHENYSRALEGEGIVEQPCPDVYWFPLLSEQMCDELVAEMEHYGQWSGGRHEDSRLAGGYENVPTVDIHMKQVGYEDQWLQLLRTYVGPMTESLFPGYHTKARAVMNFVVRYRPDEQPSLRPHHDSSTFTLNVALNHKGLDYEGGGCRFLRYDCVISSPRKGWALLHPGRLTHYHEGLPTTWGTRYIMVSFVDP
modifications: additional glycosylation at the compact N-terminal (crystal contact) interface, introduced by W148N-L150T
notes: human LH3 (PLOD3), GenBank BC011674.2, devoid of the N-terminal signal peptide, with W148N and L150T; not shown: 6xHis, N-terminal, cleaved
stoichiometry N [3]: 2

B4: LH3 L715D mutant (enzyme, human, UniProt O60568 25-738, looked up)
chain: SDRPRGRDPVNPEKLLVITVATAETEGYLRFLRSAEFFNYTVRTLGLGEEWRGGDVARTVGGGQKVRWLKKEMEKYADREDMIIMFVDSYDVILAGSPTELLKKFVQSGSRLLFSAESFCWPEWGLAEQYPEVGTGKRFLNSGGFIGFATTIHQIVRQWKYKDDDDDQLFYTRLYLDPGLREKLSLNLDHKSRIFQNLNGALDEVVLKFDRNRVRIRNVAYDTLPIVVHGNGPTKLQLNYLGNYVPNGWTPEGGCGFCNQDRRTLPGGQPPPRVFLAVFVEQPTPFLPRFLQRLLLLDYPPDRVTLFLHNNEVFHEPHIADSWPQLQDHFSAVKLVGPEEALSPGEARDMAMDLCRQDPECEFYFSLDADAVLTNLQTLRILIEENRKVIAPMLSRHGKLWSNFWGALSPDEYYARSEDYVELVQRKRVGVWNVPYISQAYVIRGDTLRMELPQRDVFSGSDTDPDMAFCKSFRDKGIFLHLSNQHEFGRLLATSRYDTEHLHPDLWQIFDNPVDWKEQYIHENYSRALEGEGIVEQPCPDVYWFPLLSEQMCDELVAEMEHYGQWSGGRHEDSRLAGGYENVPTVDIHMKQVGYEDQWLQLLRTYVGPMTESLFPGYHTKARAVMNFVVRYRPDEQPSLRPHHDSSTFTLNVALNHKGLDYEGGGCRFLRYDCVISSPRKGWALLHPGRDTHYHEGLPTTWGTRYIMVSFVDP
notes: human LH3 (PLOD3), GenBank BC011674.2, devoid of the N-terminal signal peptide, with L715D; not shown: 6xHis, N-terminal, cleaved
binding result [3]: binds
